Results on two molecules are retold here after patent US20160355553A1 (Janssen / Centocor, published 2016).

In test [1] the target is HK68 H3mini2a-linker+cl9_+10+12+17+CG7-GCN4T (influenza A virus H3N2, UniProt Q91MA7 17-566). As to the kind of experiment: FACS on HEK293F.
The target of test [2] is HK68 H3mini2a-linker+cl9_+10+12+16+CG7-GCN4T (influenza A virus H3N2, UniProt Q91MA7 17-566). Briefly: FACS on HEK293F.
In test [3] the target is HK68 H3mini2a-linker+cl9_+10+12+19+GCN4T (influenza A virus H3N2, UniProt P12584 1-550). As to the kind of experiment: FACS on HEK293F.
The target in test [4] is H3 HK68 mini2a-linker2+cl9_+10+12+GCN4T (influenza A virus H3N2, UniProt Q91MA7 17-566). As to the kind of experiment: FACS on HEK293F.
The target of test [5] is mini1 cluster11 (A/Brisbane/59/2007) (influenza A virus H1N1, UniProt A8C8J4 18-565). Briefly: FACS on HEK293F.
Test [6] deals with mini4 cluster11+5 (A/Brisbane/59/2007) (influenza A virus H1N1, UniProt A8C8J4 18-565). As to the kind of experiment: FACS on HEK293F.
Test [7] deals with mini2 cluster11+5 (A/Brisbane/59/2007) (influenza A virus H1N1, UniProt A8C8J4 18-565). As to the kind of experiment: FACS on HEK293F.
In test [8] the target is mini3 cluster11 (A/Brisbane/59/2007) (influenza A virus H1N1, UniProt A8C8J4 18-565). As to the kind of experiment: FACS on HEK293F.
Test [9] concerns the target mini2 cluster11 (A/Brisbane/59/2007) (influenza A virus H1N1, UniProt A8C8J4 18-565). As to the kind of experiment: FACS on HEK293F.
Test [10] addresses mini4 cluster11 (A/Brisbane/59/2007) (influenza A virus H1N1, UniProt A8C8J4 18-565). As to the kind of experiment: FACS on HEK293F.
The target in test [11] is mini1 cluster11+5 (A/Brisbane/59/2007) (influenza A virus H1N1, UniProt A8C8J4 18-565). As to the kind of experiment: FACS on HEK293F.
Test [12] deals with mini3 cluster11+5 (A/Brisbane/59/2007) (influenza A virus H1N1, UniProt A8C8J4 18-565). Briefly: FACS on HEK293F.
Test [13] addresses HK68 H3m2-cl9+10+11+13-tri (influenza A virus H3N2, UniProt Q91MA7 17-566). Briefly: FACS on HEK293F [D00014 FIG. 10B].
In test [14] the target is HK68 H3m2-cl9+10+11+12-GCN4 (influenza A virus H3N2, UniProt Q91MA7 17-566). As to the kind of experiment: FACS on HEK293F [D00014 FIG. 10B].
In test [15] the target is HK68 H3m2-cl9+10+11+13-GCN4 (influenza A virus H3N2, UniProt Q91MA7 17-566). Briefly: FACS on HEK293F [D00014 FIG. 10B].
Test [16] has as its target HK68 H3m2-cl9+10+12 (influenza A virus H3N2, UniProt Q91MA7 17-566). As to the kind of experiment: FACS on HEK293F [D00014 FIG. 10B].
In test [17] the target is HK68 H3m2-cl9+10 (influenza A virus H3N2, UniProt Q91MA7 17-566). Briefly: FACS on HEK293F [D00014 FIG. 10B].
In test [18] the target is H3 Full-length A/Hong Kong/1/1968 (influenza A virus H3N2, UniProt Q91MA7 17-566). Briefly: FACS on HEK293F [D00014 FIG. 10B].
The target in test [19] is HK68 H3m2-cl9 (influenza A virus H3N2, UniProt Q91MA7 17-566). Briefly: FACS on HEK293F [D00014 FIG. 10B].
For test [20], the target named is HK68 H3m2-cl9+10+11+13 (influenza A virus H3N2, UniProt Q91MA7 17-566). As to the kind of experiment: FACS on HEK293F [D00014 FIG. 10B].
For test [21], the target named is HK68 H3m2-cl9+10+11+12-tri (influenza A virus H3N2, UniProt Q91MA7 17-566). As to the kind of experiment: FACS on HEK293F [D00014 FIG. 10B].
Test [22] deals with HK68 H3m2-cl9+10+11+12 (influenza A virus H3N2, UniProt Q91MA7 17-566). As to the kind of experiment: FACS on HEK293F [D00014 FIG. 10B].
In test [23] the target is miniHA cluster1 (A/Brisbane/59/2007) (influenza A virus H1N1, UniProt A8C8J4 18-565). As to the kind of experiment: FACS on HEK293F.
For test [24], the target named is H1 Full-length (A/Brisbane/59/2007) (influenza A virus H1N1, UniProt B4URD6 18-565). As to the kind of experiment: FACS on HEK293F.
Test [25] has as its target H1 FL HA A/Puerto Rico/8/1934 (influenza A virus H1N1, UniProt P03452 18-565). As to the kind of experiment: FACS on HEK293F.
In test [26] the target is miniHA cluster1+2+3+4 (A/Brisbane/59/2007) (influenza A virus H1N1, UniProt A8C8J4 18-565). Briefly: FACS on HEK293F.
For test [27], the target named is hemagglutinin of influenza virus A/Hiroshima/52/2005 (H3) (influenza A virus H3). As to the kind of experiment: cell-based or functional assay.

B1: CR8057 (antibody, V domains shown)
VH: EVQLVESGGGLVQPGGSLRLSCAASGFTDSVIFMSWVRQAPGKGLECVSIIYIDDSTYYADSVKGRFTISRHNSMGTVFLEMNSLRPDDTAVYYCATESGDFGDQTGPYHYYAMDV
VL: QSALTQPASVSGSPGQSITISCTGSSGDIGGYNAVSWYQHHPGKAPKLMIYEVTSRPSGVSDRFSASRSGDTASLTVSGLQAEDEAHYYCCSFADSNILI
As to B1, the binding result in test [1], in test [2], in test [3], in test [4], in test [5] and in test [6] was “no binding (tested: 5 ug/ml)” in each case. Besides, the binding result in [7], in test [8], in test [9], in test [10], in [11] and in test [12] was “no binding (tested: 5 ug/ml)” throughout. The binding result in test [13], in [14], in [15], in test [16], in [17] and in [18] was “no binding (tested: 5 ug/ml)” in each case. The binding result in test [19], in [20], in test [21], in [22], in test [23] and in test [24] was “no binding (tested: 5 ug/ml)” throughout. Besides, the binding result in test [25] and in test [26] was “no binding (tested: 5 ug/ml)” in each case.

B2: CR9114 (antibody, V domains shown)
VH: QVQLVQSGAEVKKPGSSVKVSCKSSGGTSNNYAISWVRQAPGQGLDWMGGISPIFGSTAYAQKFQGRVTISADIFSNTAYMELNSLTSEDTAVYFCARHGNYYYYSGMDVWGQGTTVTVSS
VL: SYVLTQPPAVSGTPGQRVTISCSGSDSNIGRRSVNWYQQFPGTAPKLLIYSNDQRPSVVPDRFSGSKSGTSASLAISGLQSEDEAEYYCAAWDDSLKGAVFGGGTQLTVL
As for B2, the “virus neutralization assay on MDCK cells, geomean IC50” value in [27] was 12.5 µg/mL.
